B1: Tri6-1 (dsDNA)
DNA 1: GGGTCTGAAAGGCCTGGCAGGCCTGACAGGAGTG
DNA 2: CACTCCTGTCAGGCCTGCCAGGCCTTTCAGACCC
B2: Tri6-2 (dsDNA)
DNA 1: CTCAGCAGGATGAACAAGGGGTCTGAAAGGCCTGGC
DNA 2: GCCAGGCCTTTCAGACCCCTTGTTCATCCTGCTGAG
B3: Tri6-3 (dsDNA)
DNA 1: GGCAGGCCTGACAGGAGTGATAAAATGTGAGAAGAG
DNA 2: CTCTTCTCACATTTTATCACTCCTGTCAGGCCTGCC

biological target: Tri6 (Fusarium graminearum (PH-1; NRRL 31084?), UniProt Q9C1A9 1-218); test: EMSA; details: protein: recombinant; tags: His (pDEST17; Methods EMSA text says Tri6-HA recombinant protein); label: 32P 5' end

Row | Binder | binding result
1 | B1 | no binding
2 | B2 | no binding
3 | B3 | binds

From article PMC3182926
